Source: IntAct's records for PubMed 19490895

B1: Regulatory protein NPR1 (Arabidopsis thaliana (Mouse-ear cress)), P93002 (parent)
chain: MDTTIDGFADSYEISSTSFVATDNTDSSIVYLAAEQVLTGPDVSALQLLSNSFESVFDSPDDFYSDAKLVLSDGREVSFHRCVLSARSSFFKSALAAAKKEKDSNNTAAVKLELKEIAKDYEVGFDSVVTVLAYVYSSRVRPPPKGVSECADENCCHVACRPAVDFMLEVLYLAFIFKIPELITLYQRHLLDVVDKVVIEDTLVILKLANICGKACMKLLDRCKEIIVKSNVDMVSLEKSLPEELVKEIIDRRKELGLEVPKVKKHVSNVHKALDSDDIELVKLLLKEDHTNLDDACALHFAVAYCNVKTATDLLKLDLADVNHRNPRGYTVLHVAAMRKEPQLILSLLEKGASASEATLEGRTALMIAKQATMAVECNNIPEQCKHSLKGRLCVEILEQEDKREQIPRDVPPSFAVAADELKMTLLDLENRVALAQRLFPTEAQAAMEIAEMKGTCEFIVTSLEPDRLTGTKRTSPGVKIAPFRILEEHQSRLKALSKTVELGKRFFPRCSAVLDQIMNCEDLTQLACGEDDTAEKRLQKKQRYMEIQETLKKAFSEDNLELGNSSLTDSTSSTSKSTGGKRSNRKLSHRRR
partner: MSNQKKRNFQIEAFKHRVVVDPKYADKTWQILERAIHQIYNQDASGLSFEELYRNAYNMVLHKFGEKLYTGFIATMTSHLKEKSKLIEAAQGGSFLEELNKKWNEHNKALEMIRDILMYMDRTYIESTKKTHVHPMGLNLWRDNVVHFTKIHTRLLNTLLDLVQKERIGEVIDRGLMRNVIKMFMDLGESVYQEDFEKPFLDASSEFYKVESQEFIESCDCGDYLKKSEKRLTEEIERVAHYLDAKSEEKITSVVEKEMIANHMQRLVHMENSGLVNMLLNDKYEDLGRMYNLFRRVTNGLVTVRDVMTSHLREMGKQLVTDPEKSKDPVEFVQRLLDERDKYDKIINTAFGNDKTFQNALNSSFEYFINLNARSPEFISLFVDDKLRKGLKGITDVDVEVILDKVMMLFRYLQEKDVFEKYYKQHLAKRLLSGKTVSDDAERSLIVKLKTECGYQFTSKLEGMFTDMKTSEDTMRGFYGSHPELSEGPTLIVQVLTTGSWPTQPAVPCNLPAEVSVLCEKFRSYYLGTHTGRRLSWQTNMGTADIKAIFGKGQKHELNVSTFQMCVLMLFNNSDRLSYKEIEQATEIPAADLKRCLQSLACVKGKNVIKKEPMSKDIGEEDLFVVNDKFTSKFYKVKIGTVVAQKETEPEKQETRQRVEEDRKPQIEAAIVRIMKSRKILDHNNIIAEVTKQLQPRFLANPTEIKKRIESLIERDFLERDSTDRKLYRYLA

Variants of: B1
Details: with cul3a_arath CUL3A
In the case of MDTTIDGFADAYEIASTSFVATDNTDSSIVYLAAEQVLTGPDVSALQLLSNSFESVFDSPDDFYSDAKLVLSDGREVSFHRCVLSARSSFFKSALAAAKKEKDSNNTAAVKLELKEIAKDYEVGFDSVVTVLAYVYSSRVRPPPKGVSECADENCCHVACRPAVDFMLEVLYLAFIFKIPELITLYQRHLLDVVDKVVIEDTLVILKLANICGKACMKLLDRCKEIIVKSNVDMVSLEKSLPEELVKEIIDRRKELGLEVPKVKKHVSNVHKALDSDDIELVKLLLKEDHTNLDDACALHFAVAYCNVKTATDLLKLDLADVNHRNPRGYTVLHVAAMRKEPQLILSLLEKGASASEATLEGRTALMIAKQATMAVECNNIPEQCKHSLKGRLCVEILEQEDKREQIPRDVPPSFAVAADELKMTLLDLENRVALAQRLFPTEAQAAMEIAEMKGTCEFIVTSLEPDRLTGTKRTSPGVKIAPFRILEEHQSRLKALSKTVELGKRFFPRCSAVLDQIMNCEDLTQLACGEDDTAEKRLQKKQRYMEIQETLKKAFSEDNLELGNSSLTDSTSSTSKSTGGKRSNRKLSHRRR [S11A;S15A], the “effect of a mutation on the interaction” value is reported as “decreasing interaction”.
